This note sets out measurements from PMC3865253.

In one experiment the target is YFP-ICAC84-224 (rat). In words: FRET or BRET; living HEK293T cells co-expressing CFP- and YFP-tagged proteins; three-filter imaging; normalized FRET signal N_FRET (Eq. 1); when FRET occurs N_FRET is greater than 0.2. On the technique in general: Bioluminescence resonance energy transfer reports proximity on the nanometre scale.
Another experiment concerns the target GFP-ICAC1-83 (rat). The experiment can be described thus: co-IP; 293T cells co-transfected with myc-PICK1 and GFP, GFP-ICA69 or a GFP-tagged truncation; RIPA lysate; precipitated with anti-GFP antibody on protein A-sepharose; blot with anti-myc; quantified as Co-IP myc/Input myc, normalized to the ICA69 group; 4 independent cultures.
A further experiment deals with GFP-ICAC84-224 (rat). The experiment is described as above.
Sequence of GFP-ICAC84-224 (rat) (Q63054 whole entry): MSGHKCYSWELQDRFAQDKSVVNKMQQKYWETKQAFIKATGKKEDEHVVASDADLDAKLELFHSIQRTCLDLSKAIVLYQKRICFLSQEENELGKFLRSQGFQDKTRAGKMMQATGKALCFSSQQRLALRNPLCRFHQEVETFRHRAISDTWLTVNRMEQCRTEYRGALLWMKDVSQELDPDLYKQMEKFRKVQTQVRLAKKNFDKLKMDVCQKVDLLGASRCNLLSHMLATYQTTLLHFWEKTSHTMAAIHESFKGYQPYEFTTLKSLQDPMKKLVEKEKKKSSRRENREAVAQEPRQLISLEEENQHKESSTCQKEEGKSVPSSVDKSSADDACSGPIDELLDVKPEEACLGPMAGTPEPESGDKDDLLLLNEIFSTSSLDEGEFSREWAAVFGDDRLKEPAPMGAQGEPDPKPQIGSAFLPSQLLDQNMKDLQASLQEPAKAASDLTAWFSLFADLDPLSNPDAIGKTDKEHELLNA

Sequence of YFP-ICAC84-224 (rat) (Q63054 whole entry, the tested form may be a part): as the sequence (Q63054 whole entry) above

The substance “CFP-PICK1 (from UniProt Q9EP80 1-416) (natural protein)” had a N FRET with YFP-ICAC84-224 (rat) of 0.86.

Regarding “myc-PICK1 (protein interacting with C-kinase 1) (from UniProt Q9EP80 1-416) (natural protein)”, the percentage of precipitated protein normalized to ICA69 group with GFP-ICAC1-83 (rat) turned out to be 11%; with GFP-ICAC84-224 (rat) it was 66%.
